B1: FLAG-MCM3 (mouse, wild type, baculovirus) (natural protein, UniProt P25206 1-812, looked up)
chain: MAGTVVLDDVELREAQRDYLDFLDDEEDQGIYQNKVRELISDNQYRLIVSVNDLRRKNEKRANRLLNNAFEELVAFQRALKDFVASIDATYAKQYEEFYIGLEGSFGSKHVSPRTLTSCFLSCVVCVEGIVTKCSLVRPKVVRSVHYCPATKKTIERRYSDLTTLVAFPSSSVYPTKDEENNPLETEYGLSVYKDHQTITIQEMPEKAPAGQLPRSVDVILDDDLVDKVKPGDRIQVVGTYRCLPGKKGCYTSGTFRTVLIACNVKQMSKDIQPAFSADDIAKIKKFSKTRSKDVFEQLARSLAPSIHGHDYVKKAILCLLLGGVERELENGSHIRGDINILLIGDPSVAKSQLLRYVLCTAPRAIPTTGRGSSGVGLTAAVTTDQETGERRLEAGAMVLADRGVVCIDEFDKMSDMDRTAIHEVMEQGRVTIAKAGIHARLNARCSVLAAANPVYGRYDQYKTPMENIGLQDSLLSRFDLLFIMLDQMDPEQDREISDHVLRMHQYRAPGEQDGDALPLGSSVDILATDDPDFTQDDQQDTRIYEKHDSLLHGTKKKKEKMVSAAFMKKYIHVAKIIKPTLTQESAAYIAEEYSRLRSQDSMSSDTARTSPVTARTLETLIRLATAHAKARMSKTVDLQDAEEAVELVQYAYFKKVLEKEKKRKKASEDESDLEDEEEKSQEDTEQKRKRRKTHAKDGESYDPYDFSEAETQMPQVHTPKTDDSQEKTDDSQETQDSQKVELSEPRLKAFKAALLEVFQEAHEQSVGMLHLTESINRNREEPFSSEEIQACLSRMQDDNQVMVSEGIVFLI
notes: MCM3, mouse; cDNA cloned into pFastBac1; also called WT MCM3; source: Sf9, baculovirus infected, in extract; not shown: FLAG, N-terminal, kept
B2: HA-MCM-BP (mouse, baculovirus) (natural protein, UniProt Q8R3C0 1-642, looked up)
chain: MPCGEDWLSHPLGIVQGFFAQNGVNPDWEKKVIEYFKEKLKENNAPKWVPSLNEVPLHYLKPNSFVKFRCMIQDMFDPEFYMGIYETVNQNTKARVLHFGKYRDVAECGPQQELDLSSPRSTTSERQTFYCVPVPGESSWVKEAYVNANQARVSPSTSYTPSRHKRSYEDDEDMDLQPSKQKEQHPGSRQAGGLGGLHWCGEPKRLETEASSGQQLNTLNLSSPFDLNFPLPGEKGPACLVKVYEDWDCFKVNDVLELYGVLSVDPVLSVLNSEERDASALLDPMECTDMAEEQRVHSPPASLVPRIHVILAQKLQHINPLLPTCLNKEESRSCQFVSNFMSELSPVRAELLGFLTHALLGDSLAAEYLILHLISTVYTRRDVLPLGKFTVNLSGCPQNSTFTEHLYRIIQHLVPASFRLQMTIENMNQLKLIPHKDYTANRLVSGLLQLPNNTSLVIDETLLEQGQLDTPGVHNVTALSNLITWQKVDYDFSYHQMEFPCNINVLITSEGRSLLPADCQIHLQPQLIPPNMEEYMNGLLSAVLPSVLNKFRIYLTLLRFLDYNLSDDITKAVEDDFVEMRKDDPQSITADDLHQLLVVARFLSLSVGQTTLSRERWLRAKQLELSRKARLQQQKSVNGNEL
notes: MCM-BP, mouse; cDNA cloned into pFastBac1; source: Sf9, baculovirus infected, in extract

Tests used:
[1] = molecular target: FLAG-MCM3 (mouse MCM3 expressed in CHO-EBNALT85 cells) (mouse) (UniProt P25206); assay: co-IP; anti-FLAG M2 beads on whole cell, nuclear and cytoplasmic extracts of FLAG-MCM3 expressing CHOEBNALT85 cells, 150 mM KCl, Western blot
[2] = molecular target: T1, strep-Keap1 (mouse, wild type, baculovirus) (mouse, UniProt Q9Z2X8 1-624); assay: SEC; Superose 6 10/300 GL of the strep-Keap1 - FLAG-MCM3 tandem purified complex, 100 mM KCl buffer; densitometry of the Coomassie stained gel; settings: partners not purified
T1 construct: Keap1, mouse; cDNA cloned into pFastBac1; also called strep tagged Keap1; strp-Keap1; source: Sf9, baculovirus infected, in extract; not shown: Strep-tag II, N-terminal, kept
T1 sequence (Q9Z2X8 whole entry): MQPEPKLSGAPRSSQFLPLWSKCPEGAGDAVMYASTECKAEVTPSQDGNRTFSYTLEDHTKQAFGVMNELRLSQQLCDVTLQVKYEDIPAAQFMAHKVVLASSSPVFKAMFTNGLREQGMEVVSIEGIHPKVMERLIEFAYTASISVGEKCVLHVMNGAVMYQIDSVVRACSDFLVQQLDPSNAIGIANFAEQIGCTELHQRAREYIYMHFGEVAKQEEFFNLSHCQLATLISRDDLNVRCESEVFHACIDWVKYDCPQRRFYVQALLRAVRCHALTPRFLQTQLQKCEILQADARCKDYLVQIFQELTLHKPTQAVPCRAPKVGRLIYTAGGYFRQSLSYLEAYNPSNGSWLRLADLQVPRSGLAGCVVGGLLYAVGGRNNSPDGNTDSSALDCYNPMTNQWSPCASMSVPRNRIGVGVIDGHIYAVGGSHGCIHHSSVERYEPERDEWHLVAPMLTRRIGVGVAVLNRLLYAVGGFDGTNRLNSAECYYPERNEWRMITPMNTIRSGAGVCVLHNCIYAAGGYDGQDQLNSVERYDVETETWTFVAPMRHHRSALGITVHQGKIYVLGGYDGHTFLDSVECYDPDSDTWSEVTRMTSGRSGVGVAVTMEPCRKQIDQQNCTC

[3] = molecular target: B1; assay: as above; settings: partners not purified

Keap1 (endogenous, CHO cells) (natural protein)
percent of soluble MCM3 and Keap1 pulled down together [1]: 5 to 10%

B1
stoichiometry N [2]: ~1

B2
stoichiometry N [3]: ~1

From PMC6092318, “Keap1–MCM3 interaction is a potential coordinator of molecular machineries of antioxidant response and genomic DNA replication in metazoa” (Scientific Reports, 2018)
